Measured values as given in paper PMC6276866 (Circulation, 2018).

B1: recombinant B56α protein (natural protein)
chain: not shown

Key:
[1] = target: purified recombinant AnkB, wild type (SPR) (UniProt Q01484-2 1-1872); assay: SPR
recombinant B56α protein = target: B1; assay: SPR
recombinant B56α protein, sequence (Q15172 whole entry): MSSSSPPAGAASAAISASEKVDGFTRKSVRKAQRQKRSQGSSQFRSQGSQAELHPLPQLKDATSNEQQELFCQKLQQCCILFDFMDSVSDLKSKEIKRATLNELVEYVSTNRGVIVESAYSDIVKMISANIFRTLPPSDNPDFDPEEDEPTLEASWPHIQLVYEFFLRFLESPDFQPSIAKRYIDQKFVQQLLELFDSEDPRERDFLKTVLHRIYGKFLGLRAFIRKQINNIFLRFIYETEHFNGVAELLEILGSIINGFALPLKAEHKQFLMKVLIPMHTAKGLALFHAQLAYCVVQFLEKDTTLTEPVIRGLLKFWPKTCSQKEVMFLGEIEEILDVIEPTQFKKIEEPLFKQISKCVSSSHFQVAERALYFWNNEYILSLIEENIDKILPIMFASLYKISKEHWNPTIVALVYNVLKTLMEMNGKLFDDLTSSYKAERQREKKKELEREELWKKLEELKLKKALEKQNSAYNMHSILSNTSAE

| Kd [1] [µM] | Kd (recombinant B56α protein) [µM] | Binder |
| --- | --- | --- |
| 1.64 ± 0.05 |  | B1 |
|  | 22.2 ± 6.42 | purified recombinant mutant AnkB (p.Q1283H) (SPR) (natural protein) MMNEDAAQKSDSGEKFNGSSQRRKRPKKSDSNASFLRAARAGNLDKVVEYLKGGIDINTCNQNGLNALHLAAKEGHVGLVQELLGRGSSVDSATKKGNTALHIASLAGQAEVVKVLVKEGANINAQSQNGFTPLYMAAQENHIDVVKYLLENGANQSTATEDGFTPLAVALQQGHNQAVAILLENDTKGKVRLPALHIAARKDDTKSAALLLQNDHNADVQSKMMVNRTTESGFTPLHIAAHYGNVNVATLLLNRGAAVDFTARNGITPLHVASKRGNTNMVKLLLDRGGQIDAKTRDGLTPLHCAARSGHDQVVELLLERGAPLLARTKNGLSPLHMAAQGDHVECVKHLLQHKAPVDDVTLDYLTALHVAAHCGHYRVTKLLLDKRANPNARALNGFTPLHIACKKNRIKVMELLVKYGASIQAITESGLTPIHVAAFMGHLNIVLLLLQNGASPDVTNIRGETALHMAARAGQVEVVRCLLRNGALVDARAREEQTPLHIASRLGKTEIVQLLLQHMAHPDAATTNGYTPLHISAREGQVDVASVLLEAGAAHSLATKKGFTPLHVAAKYGSLDVAKLLLQRRAAADSAGKNGLTPLHVAAHYDNQKVALLLLEKGASPHATAKNGYTPLHIAAKKNQMQIASTLLNYGAETNIVTKQGVTPLHLASQEGHTDMVTLLLDKGANIHMSTKSGLTSLHLAAQEDKVNVADILTKHGADQDAHTKLGYTPLIVACHYGNVKMVNFLLKQGANVNAKTKNGYTPLHQAAQQGHTHIINVLLQHGAKPNATTANGNTALAIAKRLGYISVVDTLKVVTEEVTTTTTTITEKHKLNVPETMTEVLDVSDEEGDDTMTGDGGEYLRPEDLKELGDDSLPSSQFLDGMNYLRYSLEGGRSDSLRSFSSDRSHTLSHASYLRDSAVMDDSVVIPSHQVSTLAKEAERNSYRLSWGTENLDNVALSSSPIHSGFLVSFMVDARGGAMRGCRHNGLRIIIPPRKCTAPTRVTCRLVKRHRLATMPPMVEGEGLASRLIEVGPSGAQFLGPVIVEIPHFAALRGKERELVVLRSENGDSWKEHFCDYTEDELNEILNGMDEVLDSPEDLEKKRICRIITRDFPQYFAVVSRIKQDSNLIGPEGGVLSSTVVPQVQAVFPEGALTKRIRVGLQAQPMHSELVKKILGNKATFSPIVTLEPRRRKFHKPITMTIPVPKASSDVMLNGFGGDAPTLRLLCSITGGTTPAQWEDITGTTPLTFVNECVSFTTNVSARFWLIDCRQIQESVTFASHVYREIICVPYMAKFVVFAKSHDPIEARLRCFCMTDDKVDKTLEQQENFAEVARSRDVEVLEGKPIYVDCFGNLVPLTKSGQHHIFSFFAFKENRLPLFVKVRDTTQEPCGRLSFMKEPKSTRGLVHQAICNLNITLPIYTKESESDQEQEEEIDMTSEKNPQDEQERIEERLAYIADHLGFSWTELARELDFTEEQIHQIRIENPNSLQDQSHALLKYWLERDGKHATDTNLVECLTKINRMDIVHLMETNTEPLQERISHSYAEIEQTITLDHSEGFSVLQEELCTAQHKQKEEQAVSKESETCDHPPIVSEEDISVGYSTFQDGVPKTEGDSSATALFPQTHKEQVQQDFSGKMQDLPEESSLEYQQEYFVTTPGTETSETQKAMIVPSSPSKTPEEVSTPAEEEKLYLQTPTSSERGGSPIIQEPEEPSEHREESSPRKTSLVIVESADNQPETCERLDEDAAFEKGDDMPEIPPETVTEEEYIDEHGHTVVKKVTRKIIRRYVSSEGTEKEEIMVQGMPQEPVNIEEGDGYSKVIKRVVLKSDTEQSEDNNE |
